Blank lines part the entries; values can stand above or below the substance they belong to.
What was measured:
CD46, human (human) [1] = molecular target: CD46, human (human) (UniProt P15529); assay: flow cytometry; directly labelled antibody on wild-type SK-OV-3 cells
CD46, human (human) [2] = molecular target: CD46, human (human) (UniProt P15529); assay: flow cytometry; directly labelled antibody on siRNA knockdown SK-OV-3 cells
CD59, human (human) [3] = molecular target: CD59, human (human) (UniProt P13987); assay: FACS titration on carcinoma cells, secondary antibody; dilution 1/10, final 100 µg/ml
CD59, human (human) [4] = molecular target: CD59, human (human) (UniProt P13987); assay: FACS titration on carcinoma cells, secondary antibody; dilution 1/500, final 2 µg/ml
CD59, human (human) [5] = molecular target: CD59, human (human) (UniProt P13987); assay: FACS titration on carcinoma cells; dilution just sufficient for a saturated staining
CD59, human (human) [6] = molecular target: CD59, human (human) (UniProt P13987); assay: FACS titration on carcinoma cells, secondary antibody; dilution 1/100, final 10 µg/ml
CD59, human (human) [7] = molecular target: CD59, human (human) (UniProt P13987); assay: FACS titration on carcinoma cells, secondary antibody; dilution 1/10000, final 0.1 µg/ml
CD59, human (human) [8] = molecular target: CD59, human (human) (UniProt P13987); assay: FACS titration on carcinoma cells, secondary antibody; dilution 1/5000, final 0.2 µg/ml
CD59, human (human) [9] = molecular target: CD59, human (human) (UniProt P13987); assay: FACS titration on carcinoma cells, secondary antibody; dilution 1/1000, final 1 µg/ml
CD46, human (human) [10] = molecular target: CD46, human (human) (UniProt P15529); assay: FACS titration on carcinoma cells, secondary antibody; dilution 1/10, final 100 µg/ml
CD46, human (human) [11] = molecular target: CD46, human (human) (UniProt P15529); assay: FACS titration on carcinoma cells, secondary antibody; dilution 1/500, final 2 µg/ml
CD46, human (human) [12] = molecular target: CD46, human (human) (UniProt P15529); assay: FACS titration on carcinoma cells; dilution just sufficient for a saturated staining
CD46, human (human) [13] = molecular target: CD46, human (human) (UniProt P15529); assay: FACS titration on carcinoma cells, secondary antibody; dilution 1/100, final 10 µg/ml
CD46, human (human) [14] = molecular target: CD46, human (human) (UniProt P15529); assay: FACS titration on carcinoma cells, secondary antibody; dilution 1/10000, final 0.1 µg/ml
CD46, human (human) [15] = molecular target: CD46, human (human) (UniProt P15529); assay: FACS titration on carcinoma cells, secondary antibody; dilution 1/5000, final 0.2 µg/ml
CD46, human (human) [16] = molecular target: CD46, human (human) (UniProt P15529); assay: FACS titration on carcinoma cells, secondary antibody; dilution 1/1000, final 1 µg/ml
CD55, human (human) [17] = molecular target: CD55, human (human) (UniProt P08174); assay: FACS titration on carcinoma cells, secondary antibody; dilution 1/10, final 100 µg/ml
CD55, human (human) [18] = molecular target: CD55, human (human) (UniProt P08174); assay: FACS titration on carcinoma cells, secondary antibody; dilution 1/500, final 2 µg/ml
CD55, human (human) [19] = molecular target: CD55, human (human) (UniProt P08174); assay: FACS titration on carcinoma cells; dilution just sufficient for a saturated staining
CD55, human (human) [20] = molecular target: CD55, human (human) (UniProt P08174); assay: FACS titration on carcinoma cells, secondary antibody; dilution 1/100, final 10 µg/ml
CD55, human (human) [21] = molecular target: CD55, human (human) (UniProt P08174); assay: FACS titration on carcinoma cells, secondary antibody; dilution 1/10000, final 0.1 µg/ml
CD55, human (human) [22] = molecular target: CD55, human (human) (UniProt P08174); assay: FACS titration on carcinoma cells, secondary antibody; dilution 1/5000, final 0.2 µg/ml
CD55, human (human) [23] = molecular target: CD55, human (human) (UniProt P08174); assay: FACS titration on carcinoma cells, secondary antibody; dilution 1/1000, final 1 µg/ml
CD55, human (human) [24] = molecular target: CD55, human (human) (UniProt P08174); assay: flow cytometry; directly labelled antibody on wild-type SK-OV-3 cells
CD55, human (human) [25] = molecular target: CD55, human (human) (UniProt P08174); assay: flow cytometry; directly labelled antibody on siRNA knockdown SK-OV-3 cells
CD59, human (human) [26] = molecular target: CD59, human (human) (UniProt P13987); assay: flow cytometry; directly labelled antibody on wild-type SK-OV-3 cells
CD59, human (human) [27] = molecular target: CD59, human (human) (UniProt P13987); assay: flow cytometry; directly labelled antibody on siRNA knockdown SK-OV-3 cells
CD46, human (human) [28] = molecular target: CD46, human (human) (UniProt P15529); assay: FACS titration on carcinoma cells, secondary antibody; dilution 1/5000, final 0.02 µg/ml
CD46, human (human) [29] = molecular target: CD46, human (human) (UniProt P15529); assay: FACS titration on carcinoma cells, secondary antibody; dilution 1/100, final 1 µg/ml
CD46, human (human) [30] = molecular target: CD46, human (human) (UniProt P15529); assay: FACS titration on carcinoma cells, secondary antibody; dilution 1/10, final 10 µg/ml
CD46, human (human) [31] = molecular target: CD46, human (human) (UniProt P15529); assay: FACS titration on carcinoma cells, secondary antibody; dilution 1/1000, final 0.1 µg/ml
CD46, human (human) [32] = molecular target: CD46, human (human) (UniProt P15529); assay: FACS titration on carcinoma cells, secondary antibody; dilution 1/10000, final 0.01 µg/ml
CD46, human (human) [33] = molecular target: CD46, human (human) (UniProt P15529); assay: FACS titration on carcinoma cells, secondary antibody; dilution 1/500, final 0.2 µg/ml

Chain of UniProt P15529 (P15529 35-392): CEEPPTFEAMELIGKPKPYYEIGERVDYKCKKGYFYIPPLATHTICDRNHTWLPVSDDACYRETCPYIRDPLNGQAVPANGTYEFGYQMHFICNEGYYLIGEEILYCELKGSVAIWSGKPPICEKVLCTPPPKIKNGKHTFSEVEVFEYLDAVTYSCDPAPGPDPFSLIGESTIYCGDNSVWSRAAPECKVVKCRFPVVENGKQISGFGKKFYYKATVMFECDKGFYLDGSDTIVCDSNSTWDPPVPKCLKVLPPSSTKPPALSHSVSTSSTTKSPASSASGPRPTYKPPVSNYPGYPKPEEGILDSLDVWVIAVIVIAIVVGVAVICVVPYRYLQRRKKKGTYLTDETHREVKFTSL
Chain of UniProt P13987 (P13987 26-102): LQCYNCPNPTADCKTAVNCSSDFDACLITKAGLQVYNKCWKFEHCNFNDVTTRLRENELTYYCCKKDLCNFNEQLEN
Chain of UniProt P08174 (P08174 35-353): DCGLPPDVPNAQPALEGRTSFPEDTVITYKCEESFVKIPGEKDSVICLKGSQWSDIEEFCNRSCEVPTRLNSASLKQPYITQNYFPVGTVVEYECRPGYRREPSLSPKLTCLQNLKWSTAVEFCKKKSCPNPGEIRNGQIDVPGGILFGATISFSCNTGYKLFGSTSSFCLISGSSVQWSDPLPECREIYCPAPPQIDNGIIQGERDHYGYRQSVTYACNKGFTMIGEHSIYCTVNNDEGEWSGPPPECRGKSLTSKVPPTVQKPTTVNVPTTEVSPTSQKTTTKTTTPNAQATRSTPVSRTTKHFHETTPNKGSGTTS

Substance: anti-CD46-FITC antibody (BD Pharmingen, Cat. No. 555949)
FACS signal (FITC) (CD46, human (human) [1]): 683 FITC signal
FACS signal (FITC) (CD46, human (human) [2]): 662 FITC signal

Substance: anti-human CD59 antibody #384, clone MEM43 (antibodies online, ABIN118751)
Geom. Mean. FITC (geom. mean FITC) (CD59, human (human) [3]): 95200
Geom. Mean. FITC (geom. mean FITC) (CD59, human (human) [4]): 95500
1x conc. (1-time saturating concentration) (CD59, human (human) [5]): 0.2 µg/mL
Geom. Mean. FITC (geom. mean FITC) (CD59, human (human) [6]): 95500
Geom. Mean. FITC (geom. mean FITC) (CD59, human (human) [7]): 82400
Geom. Mean. FITC (geom. mean FITC) (CD59, human (human) [8]): 94000
Geom. Mean. FITC (geom. mean FITC) (CD59, human (human) [9]): 95500

Substance: anti-human CD46 antibody #386, clone MEM258 (AbD Serotec, MCA2113)
Geom. Mean. FITC (geom. mean FITC) (CD46, human (human) [10]): 87600
Geom. Mean. FITC (geom. mean FITC) (CD46, human (human) [11]): 75500
1x conc. (1-time saturating concentration) (CD46, human (human) [12]): 0.2 µg/mL
Geom. Mean. FITC (geom. mean FITC) (CD46, human (human) [13]): 79500
Geom. Mean. FITC (geom. mean FITC) (CD46, human (human) [14]): 53500
Geom. Mean. FITC (geom. mean FITC) (CD46, human (human) [15]): 66400
Geom. Mean. FITC (geom. mean FITC) (CD46, human (human) [16]): 75200

Substance: anti-human CD59 antibody #385, clone YTH53.1 (AbD Serotec, MCA715G)
Geom. Mean. PE (geom. mean PE) (CD59, human (human) [3]): 55400
Geom. Mean. PE (geom. mean PE) (CD59, human (human) [4]): 62700
1x conc. (1-time saturating concentration) (CD59, human (human) [5]): 0.1 µg/mL
Geom. Mean. PE (geom. mean PE) (CD59, human (human) [6]): 64200
Geom. Mean. PE (geom. mean PE) (CD59, human (human) [7]): 50100
Geom. Mean. PE (geom. mean PE) (CD59, human (human) [8]): 53800
Geom. Mean. PE (geom. mean PE) (CD59, human (human) [9]): 60500

Substance: anti-human CD46 antibody #383, clone M177 (Hycult, HM2103)
Geom. Mean. FITC (geom. mean FITC) (CD46, human (human) [28]): 15800
Geom. Mean. FITC (geom. mean FITC) (CD46, human (human) [29]): 81800
1x conc. (1-time saturating concentration) (CD46, human (human) [12]): 0.3 µg/mL
Geom. Mean. FITC (geom. mean FITC) (CD46, human (human) [30]): 84000
Geom. Mean. FITC (geom. mean FITC) (CD46, human (human) [31]): 50000
Geom. Mean. FITC (geom. mean FITC) (CD46, human (human) [32]): 14000
Geom. Mean. FITC (geom. mean FITC) (CD46, human (human) [33]): 74000

The next lines start with the values.

Geom. Mean. FITC (geom. mean FITC) (CD55, human (human) [17]): 32000
Geom. Mean. FITC (geom. mean FITC) (CD55, human (human) [18]): 25200
1x conc. (1-time saturating concentration) (CD55, human (human) [19]): 0.1 µg/mL
Geom. Mean. FITC (geom. mean FITC) (CD55, human (human) [20]): 26900
Geom. Mean. FITC (geom. mean FITC) (CD55, human (human) [21]): 24100
Geom. Mean. FITC (geom. mean FITC) (CD55, human (human) [22]): 23700
Geom. Mean. FITC (geom. mean FITC) (CD55, human (human) [23]): 25100
Substance: anti-human CD55 antibody #387, clone BRIC216 (AbD Serotec, MCA914)

FACS signal (APC) (CD55, human (human) [24]): 1450 APC signal
FACS signal (APC) (CD55, human (human) [25]): 275 APC signal
Substance: anti-CD-55-APC antibody (BD Pharmingen, Cat. No. 555696)

FACS signal (PE) (CD59, human (human) [26]): 1190 PE signal
FACS signal (PE) (CD59, human (human) [27]): 649 PE signal
Substance: anti-CD59-PE antibody (BD Pharmingen, Cat. No. 555764)
